Measurements: paper PMC2877774

What was measured:
[1] = molecular target: Anti-σ domain (ASD) of Mycobacterium tuberculosis RslA (residues 1–108), Zn2+-bound (Mycobacterium tuberculosis) (UniProt P9WJ67); experiment: crystal structure
[2] = molecular target: RsrA (Streptomyces coelicolor) (UniProt Q7AKG8); conditions: cited from earlier work
RsrA (Streptomyces coelicolor), sequence (Q7AKG8 whole entry): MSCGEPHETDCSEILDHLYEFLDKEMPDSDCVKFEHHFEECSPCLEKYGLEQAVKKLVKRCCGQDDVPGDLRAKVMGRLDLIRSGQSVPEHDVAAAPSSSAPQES

Anti-σ domain (ASD) of Mycobacterium tuberculosis RslA (residues 1–108), Zn2+-bound (Mycobacterium tuberculosis), sequence (P9WJ67 1-108): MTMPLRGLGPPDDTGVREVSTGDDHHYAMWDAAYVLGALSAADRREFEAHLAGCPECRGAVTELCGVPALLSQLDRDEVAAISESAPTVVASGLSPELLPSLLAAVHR
σR, sequence (Q7AKG9 whole entry): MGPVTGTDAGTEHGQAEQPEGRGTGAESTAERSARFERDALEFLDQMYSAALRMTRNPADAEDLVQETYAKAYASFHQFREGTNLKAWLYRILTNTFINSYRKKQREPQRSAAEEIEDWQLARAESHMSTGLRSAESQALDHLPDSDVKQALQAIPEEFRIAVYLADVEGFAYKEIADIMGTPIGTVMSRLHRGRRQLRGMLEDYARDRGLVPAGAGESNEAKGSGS

Row | Substance | stoichiometry N [1] | Kd [2] [nM]
1 | σ4^L, the −35-element recognition domain of Mycobacterium tuberculosis σ^L (from UniProt P9WGH5 99-177) (domain or fragment) | 1 | –
2 | σR (from UniProt Q7AKG9) | – | 10
